Data taken from article PMC10397247.

Experiments:
Assay in all cases: two-hybrid library CCNG1;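 also: natural log of median RNA to DNA barcode read ratio; higher means stronger binding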
[1] = molecular target: T1, O15-bH
T1 chain: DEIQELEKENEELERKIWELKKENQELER

[2] = molecular target: T2, O16-bH
T2 chain: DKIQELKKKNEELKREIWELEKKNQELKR

[3] = molecular target: T3, O2-bH
T3 chain: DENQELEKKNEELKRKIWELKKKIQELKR

[4] = molecular target: T4, O3-bH
T4 chain: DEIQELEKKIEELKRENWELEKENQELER

[5] = molecular target: T5, O4-bH
T5 chain: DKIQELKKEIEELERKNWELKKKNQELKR

[6] = molecular target: T6, O5-bH
T6 chain: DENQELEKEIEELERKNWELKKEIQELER

[7] = molecular target: T7, O6-bH
T7 chain: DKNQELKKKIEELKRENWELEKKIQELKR

[8] = molecular target: T8, O7-bH
T8 chain: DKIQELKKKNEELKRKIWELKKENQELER

[9] = molecular target: T9, O8-bH
T9 chain: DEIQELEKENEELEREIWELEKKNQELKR

[10] = molecular target: T10, O9-bH
T10 chain: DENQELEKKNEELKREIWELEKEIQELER

In the case of DKNQELKKKIEELKRKNWELKKEIQELER [O13-bH], the interaction score [1] is reported as 1.51, the interaction score [2] is reported as -1.44 and the interaction score [3] is reported as -2.29. It also gave an interaction score [4] of 0.496, an interaction score [5] of -0.471 and an interaction score [6] of 0.194. For the same binder, the interaction score [7] was -0.527, the interaction score [8] was -0.211 and the interaction score [9] was 0.569. The interaction score [10] was -0.0315.

Work on DKIQELKKKNEELKREIWELEKKNQELKR [O16-bH] yielded an interaction score [2] of 0.441, an interaction score [3] of -1.39 and an interaction score [4] of 1.41. It also gave an interaction score [5] of 0.0481, an interaction score [6] of -0.611 and an interaction score [7] of 1.06. It also gave an interaction score [8] of 1.17, an interaction score [9] of 0.7 and an interaction score [10] of -0.421.

DEIQELEKENEELERKIWELKKENQELER [O15-bH] showed an interaction score [1] of 0.268, an interaction score [2] of 1.62 and an interaction score [3] of -0.549. The interaction score [4] was -0.38, the interaction score [5] was -1.19 and the interaction score [6] was -1.6. It also gave an interaction score [7] of -0.0351, an interaction score [8] of 1.73 and an interaction score [9] of 0.416. The interaction score [10] was -0.267.

For DENQELEKEIEELERENWELEKKIQELKR [O14-bH], the interaction score [1] was 1.43, the interaction score [2] was 1.45 and the interaction score [3] was -1.83. The interaction score [4] was -0.0193, the interaction score [5] was 0.39 and the interaction score [6] was -1.91. For the same binder, the interaction score [7] was 1.63, the interaction score [8] was 1.56 and the interaction score [9] was -1.78. The interaction score [10] was 0.497.
